Measurements: patent publication US20250283063, “NOVEL CRISPR-CAS12I SYSTEMS AND USES THEREOF” (HUIDAGENE THERAPEUTICS (SINGAPORE) PTE. LTD., published 2025)
Where a chain is given by its changes, count along the chain named.

Tests used:
[1] = molecular target: T1, hfCas12Max (v6.3) (N243R,E336R,D892R); experiment: cell_activity; PAM TTTG; on-target; settings: tags: NLS
T1 chain: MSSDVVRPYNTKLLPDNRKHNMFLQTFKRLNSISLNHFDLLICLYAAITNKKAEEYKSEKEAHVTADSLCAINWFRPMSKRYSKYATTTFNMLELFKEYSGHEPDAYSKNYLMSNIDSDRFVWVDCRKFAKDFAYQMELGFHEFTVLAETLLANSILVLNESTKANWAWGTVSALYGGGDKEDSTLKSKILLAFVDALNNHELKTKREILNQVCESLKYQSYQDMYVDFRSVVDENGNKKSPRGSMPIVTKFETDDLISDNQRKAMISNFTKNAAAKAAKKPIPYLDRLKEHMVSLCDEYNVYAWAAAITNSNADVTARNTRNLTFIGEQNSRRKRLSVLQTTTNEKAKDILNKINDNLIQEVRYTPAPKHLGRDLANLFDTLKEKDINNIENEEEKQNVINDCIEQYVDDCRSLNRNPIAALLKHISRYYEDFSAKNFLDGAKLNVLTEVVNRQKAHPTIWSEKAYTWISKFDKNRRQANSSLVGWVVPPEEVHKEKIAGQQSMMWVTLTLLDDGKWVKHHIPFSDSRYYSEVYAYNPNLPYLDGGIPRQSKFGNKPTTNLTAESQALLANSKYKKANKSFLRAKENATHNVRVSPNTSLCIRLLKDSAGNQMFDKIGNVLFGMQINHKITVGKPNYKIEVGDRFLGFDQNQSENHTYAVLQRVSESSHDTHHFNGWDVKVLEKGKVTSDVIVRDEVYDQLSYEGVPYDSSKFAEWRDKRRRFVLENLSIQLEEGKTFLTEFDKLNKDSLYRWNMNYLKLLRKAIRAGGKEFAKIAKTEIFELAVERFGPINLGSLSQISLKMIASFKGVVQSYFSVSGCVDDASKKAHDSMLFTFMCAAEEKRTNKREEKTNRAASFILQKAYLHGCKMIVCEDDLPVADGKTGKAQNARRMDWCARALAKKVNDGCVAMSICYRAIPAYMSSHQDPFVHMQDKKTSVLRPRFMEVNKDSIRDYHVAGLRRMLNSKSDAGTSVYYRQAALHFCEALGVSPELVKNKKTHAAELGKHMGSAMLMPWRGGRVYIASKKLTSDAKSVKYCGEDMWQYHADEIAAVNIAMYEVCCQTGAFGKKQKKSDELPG

[2] = molecular target: T2, xCas12i v6.1 (N243R,E336R,V880R); experiment: cell_activity; PAM TTTG; on-target; settings: tags: NLS
T2 chain: T1 chain with V880R, R892D

B1: TTR.2 crRNA ; TTR ON.1 (ssRNA ; dsDNA)
RNA: AUGACUCAGAAAUGUGUCCCCAGUUGACACUAGAAGGGAUAUACAAAGUGGA
DNA 1: TTTGTAGAAGGGATATACAAAGTGGA
DNA 2: TCCACTTTGTATATCCCTTCTACAAA
[1]
  activity: 77.7%
[2]
  activity: 75.7%
